Residue numbers refer to the chain shown, from its start.
B1: AC_05339 (bispecific antibody)
heavy 1: not shown
light: DIQMTQSPSSLSASVGDRVTITCRASQSISSYLNWYQEKPGKAPKLLIYAASSLQSGVPSRFSGSGSGTDFTLTISSLQPEDFATYYCQQAGNPHTFGQGTKLEIKRTVAAPSVFIFPPSDEQLKSGTASVVCYLNNFYPREAKVQWKVDNALQSGNSQESVTEQDSKDSTYSLWSTLTLSKADYEKHKVYACEVTHQGLSSPVTKSFNRGEC
heavy 2: EVQLLESGGGLVQPGGSLRLSCAASGFTFSTYGMHWVREAPGKGLEWLSYISGGSSYIFYADSVRGRFTISRDNSENALYLQMNSLRAEDTAVYYCARILRGGSGMDLWGQGTLVTVSSASTKGPSVFPLAPSSKSTSGGTAALGCLVKDYFPEPVTVSWNSGALTSGVHTFPAVLQSSGLYSLSSVVEVPSSSLGTQTYICNVNHKPSNTKVDKKVEPKSC
notes: RUBY format, CEACAM5xCD40; also called AC_5339
B2: Multi44 (bispecific antibody)
heavy 1: not shown
light: B1 light with A91W, N93Y, P94L, H95L
heavy 2: B1 heavy 2 with R65K, E76K, A78T, S185T
notes: Optimised RUBY format, CEACAM5xCD40
B3: Multi48 (bispecific antibody)
heavy 1: not shown
light: DIQMTQSPSSLSASVGDRVTITCRASQSISSYLNWYQEKPGKAPKLLIYAASSLQSGVPSRFSGSGSGTDFTLTISSLQPEDFATYYCQQYGRNPPTFGQGTKLEIKRTVAAPSVFIFPPSDEQLKSGTASVVCYLNNFYPREAKVQWKVDNALQSGNSQESVTEQDSKDSTYSLWSTLTLSKADYEKHKVYACEVTHQGLSSPVTKSFNRGEC
heavy 2: EVQLLESGGGLVQPGGSLRLSCAASGFTFGDHAMSWVREAPGKGLEWVSAISGYGHSTGYADSVKGRFTISRDNSKNTLYLQMNSLRAEDTAVYYCARNHYRVGLDYWGQGTLVTVSSASTKGPSVFPLAPSSKSTSGGTAALGCLVKDYFPEPVTVSWNSGALTSGVHTFPAVLQSSGLYSLTSVVEVPSSSLGTQTYICNVNHKPSNTKVDKKVEPKSC
notes: Optimised RUBY format, CD40xCEACAM5
B4: Multi49 (bispecific antibody)
heavy 1: not shown
light: B3 light
heavy 2: EVQLLESGGGLVQPGGSLRLSCAASGFTFYDHAMSWVREAPGKGLEWVSAISGSYGSTGYADSVKGRFTISRDNSKNTLYLQMNSLRAEDTAVYYCARWGGWAGDIDYWGQGTLVTVSSASTKGPSVFPLAPSSKSTSGGTAALGCLVKDYFPEPVTVSWNSGALTSGVHTFPAVLQSSGLYSLTSVVEVPSSSLGTQTYICNVNHKPSNTKVDKKVEPKSC
notes: as for B3
B5: Multi38 (bispecific antibody)
heavy 1: not shown
light: not shown
heavy 2: B3 heavy 2
notes: Optimised RUBY format, CD40xCEACAM5 (Fab8); also called Muli38

Legend:
[1] = target: T1, human CEACAM5, recombinant (R&D Systems #4128-CM-050) (human, UniProt P06731 35-685); experiment: Octet BLI, captured bsAb, soluble antigen, 1:1 fit
T1 construct: Bought; coated in ELISA and used as monomeric analyte in Octet; also called hCEACAM-5; Human CEACAM5-His; not shown: His tag
T1 sequence (looked up): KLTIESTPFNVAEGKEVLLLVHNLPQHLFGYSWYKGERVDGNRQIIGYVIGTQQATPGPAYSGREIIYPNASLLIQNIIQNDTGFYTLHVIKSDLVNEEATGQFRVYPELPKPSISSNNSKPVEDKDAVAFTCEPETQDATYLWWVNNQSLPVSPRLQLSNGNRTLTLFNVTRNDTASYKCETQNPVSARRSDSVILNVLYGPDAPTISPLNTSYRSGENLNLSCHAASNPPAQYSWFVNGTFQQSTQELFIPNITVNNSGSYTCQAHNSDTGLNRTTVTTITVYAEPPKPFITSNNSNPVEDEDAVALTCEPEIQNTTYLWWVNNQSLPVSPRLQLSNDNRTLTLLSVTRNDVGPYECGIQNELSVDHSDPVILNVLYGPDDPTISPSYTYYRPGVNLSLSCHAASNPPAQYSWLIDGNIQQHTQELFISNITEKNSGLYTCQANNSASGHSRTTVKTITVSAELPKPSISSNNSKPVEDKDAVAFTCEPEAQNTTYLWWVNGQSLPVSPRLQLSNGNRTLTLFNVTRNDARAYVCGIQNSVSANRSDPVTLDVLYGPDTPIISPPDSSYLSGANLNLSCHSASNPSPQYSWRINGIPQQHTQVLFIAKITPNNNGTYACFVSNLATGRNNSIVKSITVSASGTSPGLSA
Procedure: (§1) Kinetic measurements were performed in the Octet RED96 platform using several different setups. […] Monomeric human CD40-His-Avi tag (Acro Biosystems #CD0-H5228), monomeric Human CEACAM5-His (R&D Systems #4128-CM-050) or monomeric Cynomolgus CEACAM5-His (Sino Biological #90891-C08H) were ½ serially diluted in 1× kinetic buffer (Sartorius) starting at 500 nM or 100 nM. […] Binding kinetics was studied in 1× kinetic buffer where association was allowed for 100 sec, 300 sec or 600 sec followed by dissociation for 100 sec, 300 sec or 3600 sec. Sensor tips were regenerated with 10 mM Glycine pH 1.7. Data generated were referenced by subtracting blank or parallel buffer blank, the baseline was aligned to the y-axis, inter-step correction by alignment against dissociation was performed and the data was smoothed by Savitzky-Golay filter in the data analysis software (v9.0.0.14). The processed data was fitted using a 1:1 Langmuir binding model with R² or X² as a measurement of fitting accuracy.
Association was measured for 100 sec and dissociation for 300 sec.

[2] = target: T1, human CEACAM5, recombinant (R&D Systems …); experiment: Octet BLI, captured bsAb, monomeric CEACAM5 in solution, 1:1 fit
Procedure: as §1
Association was measured for 100 sec and dissociation was measured for 100 sec.

[3] = target: T1, human CEACAM5, recombinant (R&D Systems …); experiment: dual-target ELISA: hCEACAM-5 coated, bsAb titrated, detected with biotinylated hCD40-muIg and streptavidin-HRP, luminescence; signal needs both targets bound
Procedure: (§2) 96-well plates were coated with 0.5 μg/mL antigen, hCEACAM-1 (2244-CM-050, R&D Systems), hCEACAM-5 (4128-CM-050, R&D Systems), hCEACAM-6 (3934-CM-050, R&D Systems) or CEACAM-8 (9639-CM-050, R&D Systems) in PBS over night at 4° C. After washing in PBS/0.05% Tween 20 (PBST), the plates were blocked with PBST, 2% BSA for at least 30 minutes at room temperature before a second round of washing. RUBY bsAbs, diluted in PBST, 0.5% BSA, were then added and allowed to bind for at least 1 hour at room temperature. […] Finally, a final round of washing was performed and bound complexes detected using SuperSignal Pico Luminescent as substrate and luminescence signals were measured using Fluostar Optima.

[4] = target: human CD40 expressed on cells (CD40 reporter cells, HEK Blue CD40L cells, primary B cells, tumour APCs) (human, UniProt P25942 21-277); experiment: cell-based or functional assay
Sequence of human CD40 expressed on cells (CD40 reporter cells, HEK Blue CD40L cells, primary B cells, tumour APCs) (P25942 21-277): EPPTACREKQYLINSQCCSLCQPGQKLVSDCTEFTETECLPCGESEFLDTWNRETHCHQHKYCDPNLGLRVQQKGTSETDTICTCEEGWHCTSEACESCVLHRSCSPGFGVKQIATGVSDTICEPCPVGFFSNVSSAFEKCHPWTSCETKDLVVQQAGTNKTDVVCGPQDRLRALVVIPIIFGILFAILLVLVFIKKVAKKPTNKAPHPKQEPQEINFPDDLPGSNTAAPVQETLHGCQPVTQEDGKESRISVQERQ

[5] = target: T1, human CEACAM5, recombinant (R&D Systems …); experiment: ELISA, antigen coated at 0.5 µg/mL, bsAb titrated, anti-human kappa-HRP, luminescence
Procedure: as §2

[6] = target: T2, biotinylated human CEACAM5-His (Acro Biosystems #CE5-H82E0) (human, UniProt P06731 35-685, biotinylated (site not stated)); experiment: Octet BLI, captured CEACAM5-biotin, bsAb in solution, 1:1 fit
T2 construct: also called CEACAM5-biotin; captured human CEACAM5-biotin; not shown: His tag
T2 sequence (looked up): T1 sequence (looked up)
Procedure: as §1
Association was measured for 100 sec and dissociation measured for 100 sec.

Row | Binder | Kd [1] [nM] | koff [1] [s⁻¹] | kon [1] [M⁻¹ s⁻¹] | Kd [2] [nM] | koff [2] [s⁻¹] | kon [2] [M⁻¹ s⁻¹] | EC50 (read off the curve) [3] [nM] | EC50 of SEAP release, HEK Blue CD40L reporter cells, bsAb crosslinked to CHO-CEACAM5 cells, 0 Raji sink cells/well [4] [nM] | EC50 of SEAP release, same assay, 10 000 Raji sink cells/well [4] [nM] | EC50 of SEAP release, same assay, 30 000 Raji sink cells/well [4] [nM] | EC50 of SEAP release, same assay, 90 000 Raji sink cells/well [4] [nM] | EC50 (read off the curve) [5] [nM] | Kd [6] [nM] | koff [6] [s⁻¹] | kon [6] [M⁻¹ s⁻¹]
1 | B1 | < 0.001 | < 1e-07 | 520000 | 1.8 | 0.00042 | 240000 | ~0.3 | 0.03 | 0.05 | 0.08 | 0.23 |  |  |  | 
2 | B2 |  |  |  | 13 | 0.0023 | 180000 | ~0.8 | 0.02 | 0.05 | 0.08 | 0.16 | ~0.5 | < 0.001 | < 1e-07 | 150000
3 | B3 |  |  |  | < 0.001 | < 1e-07 | 24000 |  |  |  |  |  | ~3 |  |  | 
4 | B4 |  |  |  | < 0.001 | < 1e-07 | 28000 |  |  |  |  |  | ~3 |  |  | 
5 | B5 |  |  |  |  |  |  |  |  |  |  |  | ~2 |  |  | 

— patent publication US20260146107A1 (ALLIGATOR BIOSCIENCE, published 2026)
